The source of these data is the supplement of paper PMC9170038.

In this series the test system is MS2 coat protein. Kind of series: apparent KD of MS2 coat protein; designed switch direction (-1 OFF switch, 1 ON switch): -1; higher = weaker reporter binding. The procedure, abridged: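 SNAP-549-labelled MS2 coat protein was titrated, doubling from 0.7 or 1.5 nM to 3 µM, over designed RNA switches transcribed on Illumina chips by stalled E. coli RNA polymerase. Runs were done without input, with 200 uM small-molecule ligand, or with an oligonucleotide input. Apparent KD is the per-design median over clusters of curve-fitted normalised fluorescence.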

Setting [1] is: Eterna round: R95, input ligand: microRNA oligo, concentration not stated.
Where [2] appears, read: input ligand: microRNA oligo, concentration not stated.
The mark [3] stands for this setting: Eterna round: R95, input ligand: FMN 200 uM.
Setting [4] is: Eterna round: R95, input ligand: none.

As for “CGGAUGUGAGGAUAUACAUGAGGAUCACCCAUGUGAGCCAGCUAGCUGACUGGCUCGUGUAGAAGGCACGUCUG [JL-ex3-2.16 Brourd mod] (puzzle: Exclusion 3)”, the “apparent KD of MS2 coat protein” value under setting [1] worked out at 14.2 nM.

Take “CGGCAUGUACAAGGAUAUCAGCACGAUUAGUGCUGAGAAGGUGUAACAUGAGGAUCACCCAUGUAGAUCAUUAACCGAUUAAUU [ENG1/9-A2] (Eterna round: R96, puzzle: Exclusion NG 1)”: the “apparent KD of MS2 coat protein” value was found to be 145 nM (input ligand: FMN 200 uM), 64.3 nM under setting [2] and 60.7 nM (input ligand: none).

As for “CGGCUACGAUGAGGAUAUACGCACAUGAGGAUCACCCAUGUAAAUCACGGGUAAAGAUCGUCAUCGUAGAAGGCAUAAGGGCCC [Ormale] (Eterna round: R96, puzzle: Exclusion NG 2)”, the “apparent KD of MS2 coat protein” value is 33 nM (input ligand: FMN 200 uM), 23.9 nM under setting [2] and 30.1 nM (input ligand: none).

As for “CGUAAAAGGAAGGAUAUGCUAGACGAAAGUCUAGCAGAAGGUCCUACAUGAGGAUCACCCAUGUGUCCUAUACG [Mat - Exclusion 6 - Eli Mod - D12] (Eterna round: R97, puzzle: Exclusion 6)”, the “apparent KD of MS2 coat protein” value is, setting by setting: (input ligand: FMN 200 uM) 80.5 nM; (input ligand: none) 49.8 nM.

On to “CGUAUGUGAGGAUAUGACAAUGGUAUCUUCGGAUACCAUUGUCAGAAGGAACAUGAGGAUCACCCAUGUAGAUC (Eterna round: R96, puzzle: Exclusion 4)”, for which the “apparent KD of MS2 coat protein” value runs as follows: (input ligand: FMN 200 uM) 161 nM; under setting [2], 43.1 nM; (input ligand: none) 54.5 nM.

As to “CGUAUGUGAGGAUAUGACAAUGGUAUCUUCGGAUACCAUUGUCAGAAGGAACAUGAGGAUCACCCAUGUAGAUC (puzzle: Exclusion 4)”, the “apparent KD of MS2 coat protein” value under setting [1] amounted to 44.8 nM.

Turning to “CGUGCGUAUGUGAGGAUAUGCUGGUCCUUGGCUCGGCAGAAGGCACAUGAGGAUCACCCAUGUGGUGUCGUACG [salish99_Bmod_ex4_062] (puzzle: Brourd's mod of Exclusion 4)”, the “apparent KD of MS2 coat protein” value by setting is: under setting [3], 53.4 nM; under setting [1], 152 nM; under setting [4], 171 nM.

On to “CGUGUACGAGGAUAUAGAUUGGAUGACAUGAGGAUCACCCAUGUGAUCAAUCUAUUUGGUUUAGAAGGUGUACAUG [JR_Ex5_Sub050] (Eterna round: R97, puzzle: Exclusion 5)”, for which the “apparent KD of MS2 coat protein” value (input ligand: FMN 200 uM) was found to be 14.1 nM and the “apparent KD of MS2 coat protein” value (input ligand: none) is 14.8 nM.

Consider “CUAAGUUGGUAAGGAUAUCCUACAUUAUUCUGACCCGUGCAAGCUACAUGAGGAUCACCCAUGUGGGAGAAGGUGCGUUAAUGU [Design 5] (Eterna round: R96, puzzle: Exclusion NG 2)”, for which the “apparent KD of MS2 coat protein” value runs as follows: (input ligand: FMN 200 uM) 16.3 nM; under setting [2], 13.8 nM; (input ligand: none) 20.3 nM.

On to “CUAGACCGAGGAUAUAUUAUGUGAAACAUGAGGAUCACCCAUGUAAUAUGAUGGAUGUAAAUAGAAGGCGGUCUAG [Mat - Exclusion 5 - JL mod - D29] (puzzle: Exclusion 5)”, for which the “apparent KD of MS2 coat protein” value turned out to be 31.4 nM under setting [3], 53.4 nM under setting [1] and 23 nM under setting [4].

As to “CUAGAUCUUCGGAUCUAGUACAUGAGGAUCACCCAUGUGACGAGUUGAUCCUCAAACAAGCUUUUUGCUCGUCUUAU [Sensor v3 - Turn-off variant 1 - 17] (puzzle: Sensor v3, turn-off variant 1)”, the “apparent KD of MS2 coat protein” value under setting [3] is 19.9 nM, the “apparent KD of MS2 coat protein” value under setting [1] stood at 16 nM and the “apparent KD of MS2 coat protein” value under setting [4] was determined as 22.1 nM.

For the sequence “CUAGUAUAUCAGGAUAUGAUAGUGUAUAGUAUAUCAGAAGGGAUGACAUGAGGAUCACCCAUGUUAAGGGAUGA [JR_Ex6_Sub050] (Eterna round: R97, puzzle: Exclusion 6)”, the “apparent KD of MS2 coat protein” value by setting is: (input ligand: FMN 200 uM) 52.4 nM; (input ligand: none) 46.1 nM.

Regarding “CUAGUAUAUCAGGAUAUGAUAUUGUGUAGUAUAUCAGAAGGGAUGACAUGAGGAUCACCCAUGUUAUGGGAUGA [JR_Ex6_Sub048] (Eterna round: R97, puzzle: Exclusion 6)”, the “apparent KD of MS2 coat protein” value by setting is: (input ligand: FMN 200 uM) 273 nM; (input ligand: none) 121 nM.

With “CUAGUCCGAGGAUAUAUUAAGUGAUACAUGAGGAUCACCCAUGUAAUUUAAUGGAAAUAAAUAGAAGGCGGACUAG [Mat - Exclusion 5 - JL mod - D52] (puzzle: Exclusion 5)”, the “apparent KD of MS2 coat protein” value was 44.7 nM under setting [3], 46.2 nM under setting [1] and 53.3 nM under setting [4].

Consider “CUCAUGUGAGGAUAUGUGAUCAACCUUCUAUAUAGAUGAUUACAGAAGGCACAUGAGGAUCACCCAUGUAGAUC [Ex4 - 3 - 23] (puzzle: Exclusion 4)”, for which the “apparent KD of MS2 coat protein” value under setting [1] came to 21.1 nM.

In the case of “CUCAUUUGUCAGGAUAUCGUGAGGCUAAUUAUACGAGAAGGGACGACAUGAGGAUCACCCAUGUGGUCUUUGAG [JR_Ex6_Sub082] (Eterna round: R97, puzzle: Exclusion 6)”, the “apparent KD of MS2 coat protein” value was found to be 161 nM (input ligand: FMN 200 uM) and 33.3 nM (input ligand: none).

Consider “CUCCUACAUGAGGAUCACCCAUGUCAGGAUAUCUCAGUGGCACCUAAAGGCGCCACCCAGAGAAGGGACGUGCA [Soistiis] (puzzle: Exclusion 1)”, for which the “apparent KD of MS2 coat protein” value under setting [1] was determined as 10.6 nM.

In the case of “CUCGCUGUAGGAUAUACAUAUGUCCUGUCAGCCGCGGCAGAACAUGAGGAUCACCCAUGUAGAAGGAUAGAGAG [Eternabot (Original) Solution 34] (Eterna round: R97, puzzle: Exclusion 2)”, the “apparent KD of MS2 coat protein” value is, setting by setting: (input ligand: FMN 200 uM) 48.3 nM; (input ligand: none) 26.7 nM.

On to “CUCGGACAUGAGGAUCACCCAUGUGAGGAUAUGGUGCUAUCGUCAUUAGACGAUUGCGUUAGAAGGCAUAUUUU [LRO-Excl1-30] (puzzle: Exclusion 1)”, for which, under setting [1], the “apparent KD of MS2 coat protein” value turned out to be 24.4 nM.

In the case of “CUCGUGCAGCAAAGCUGUACGAGUACAUGAGGAUCACCCAUGUAGGAUAUGGUACGCAAAGCGUGCUAGAAGGAUAUGUGAAAG [Mat - Exclusion NG 3 - Mod of JL - D89] (Eterna round: R96, puzzle: Exclusion NG 3)”, the “apparent KD of MS2 coat protein” value (input ligand: FMN 200 uM) was determined as 44.2 nM, the “apparent KD of MS2 coat protein” value under setting [2] is 31.4 nM and the “apparent KD of MS2 coat protein” value (input ligand: none) was 49.9 nM.

Turning to “CUCGUGCAGCUUUGCUGUACGAGUACAUGAGGAUCACCCAUGUAGGAUAUGGUACGCUUUGCGUGCUAGAAGGAUAUGUGUAGG [JL EXNG3 1.38] (Eterna round: R96, puzzle: Exclusion NG 3)”, the “apparent KD of MS2 coat protein” value runs as follows: (input ligand: FMN 200 uM) 44.1 nM; under setting [2], 18.4 nM; (input ligand: none) 31.3 nM.

Turning to “CUCUCACAUGAGGAUCACCCAUGUUAGGAUAUUCCGUAGCGACUUACAAGAGGAGCAGGAAGAAGGAGCCUGGC [Eternabot (L1) Solution 40] (Eterna round: R97, puzzle: Exclusion 1)”, the “apparent KD of MS2 coat protein” value (input ligand: FMN 200 uM) came to 343 nM and the “apparent KD of MS2 coat protein” value (input ligand: none) is 435 nM.

Turning to “CUCUUGUCAGGAUAUUAUGGACGAUAGCAGGGCUACGUCAGUGAGAAGGGACAUGAGGAUCACCCAUGUAAAAU [Onatbezaes] (puzzle: Exclusion 4)”, the “apparent KD of MS2 coat protein” value under setting [1] was found to be 77.1 nM.

On to “CUCUUGUGAGGAUAUCAGGUGUGCUAGCGUACUGGUACAUCUGAGAAGGCACAUGAGGAUCACCCAUGUUUCUA [Mat - Exclusion 4 - Mod of JL - D40] (puzzle: Exclusion 4)”, for which the “apparent KD of MS2 coat protein” value under setting [1] stood at 93.8 nM.

For “CUGAGCAGACGGAGAUCCAACAUGAGGAUCACCCAUGUCUCAAAAGCUUCUUGCUCGUCUUAUCCUCCUCUGUUCUC [Maeronqu] (puzzle: Sensor v3, turn-off variant 1)”, the “apparent KD of MS2 coat protein” value is, setting by setting: under setting [3], 36.8 nM; under setting [1], 215 nM; under setting [4], 33.1 nM.

On to “CUGAGGUAGCGGUCCUAUGACAUGAGGAUCACCCAUGUACCUUGCUUUGAGCAUUUUGCUCGUCUUAUGAUUCUCGG [Mat - Sensor v3 - turn-off var 1 - JL Mod - D39] (puzzle: Sensor v3, turn-off variant 1)”, for which the “apparent KD of MS2 coat protein” value worked out at 371 nM under setting [3], 474 nM under setting [1] and 427 nM under setting [4].

“CUGAGGUAGCGGUCCUAUGACAUGAGGAUCACCCAUGUGCCUCGCUACAAGCUUUUUGCUCGUUUUAUGAUUCUCGG [JL Atriat mod 11] (puzzle: Sensor v3, turn-off variant 1)”: the “apparent KD of MS2 coat protein” value reads like this: under setting [3], 71.2 nM; under setting [1], 90.1 nM; under setting [4], 95.3 nM.

In the case of “CUGCUCCGUGUAGGAUAUCCCGGCAACCAACCGGGAGAAGGACAUGAGGAUCACCCAUGUAUGUUAUUAUCACGUGAAGCGUCC [Design 28] (Eterna round: R96, puzzle: Exclusion NG 1)”, the “apparent KD of MS2 coat protein” value amounted to 29 nM (input ligand: FMN 200 uM), 12.5 nM under setting [2] and 19.9 nM (input ligand: none).

Take “CUGCUCCGUGUAGGAUAUGCAUAUUCCCAUUAUGCAGAAGGACAUGAGGAUCACCCAUGUAUGUUAUUAUCAUGUGUUGCAUGC [Design 10] (Eterna round: R96, puzzle: Exclusion NG 1)”: the “apparent KD of MS2 coat protein” value was found to be 146 nM (input ligand: FMN 200 uM), 35.2 nM under setting [2] and 34.3 nM (input ligand: none).

For “CUGCUCCGUGUAGGAUAUGCCCGCACCACCCGGGCAGAAGGACAUGAGGAUCACCCAUGUAUGUUAUUAUCACGUGUGGCGCGC [Design 39] (Eterna round: R96, puzzle: Exclusion NG 1)”, the “apparent KD of MS2 coat protein” value by setting is: (input ligand: FMN 200 uM) 23.7 nM; under setting [2], 11.7 nM; (input ligand: none) 16.4 nM.

On to “CUGCUCCGUGUAGGAUAUGCGCGCAACCAACGCGCAGAAGGACAUGAGGAUCACCCAUGUAUGUUAUUAUCACGUGAGGCGCAG [Design 33] (Eterna round: R96, puzzle: Exclusion NG 1)”, for which the “apparent KD of MS2 coat protein” value was 28.9 nM (input ligand: FMN 200 uM), 13.2 nM under setting [2] and 16.6 nM (input ligand: none).
